Earlier results, collected in paper PMC3144249.

Columns and labels:
[1] = molecular target: arrestin-1 dimer (Mus musculus) (UniProt P20443)
[2] = molecular target: arrestin-1 (Mus musculus) (UniProt P20443)

| Substance | Kd [1] [µM] | Kd [2] [µM] |
| --- | --- | --- |
| arrestin-1 dimer (from UniProt P20443) | 63.1 | – |
| arrestin-1 (from UniProt P20443) | – | 57.5 |
